According to the RNAGym collection of RNA variant scans (doi:10.7554/elife.80360):

B1: Hairpin Ribozyme (parent)
chain: GUCCUCUUUCACGUGCGCGUGAAAGAGAGAAGUGAACCAGAGAAACACACGUUGUGGUAUAUUACCUGGUA

Variants of: B1
Assay: self-cleavage, relative activity (ratio to wild type); higher = more cleavage; co-transcriptional

Row | Variant | self-cleavage
1 | C6A C48G | 0.121
2 | C6A C48A | 0.084
3 | U7A A61U | 0.167
4 | U7A A61G | 0.186
5 | C6U A49C | 0.0449
6 | C6U A49U | 0.159
7 | C6A U55C | 0.243
8 | U7C G19U | 0.68
9 | C6G U53A | 0.585
10 | C6G U53C | 0.329
11 | C6U G56U | 0.144
12 | C6U U70C | 0.901
13 | C6U U70G | 0.588
14 | C6A A61C | 0.225
15 | U7A U52G | 0.733
16 | C6A A71G | 0.606
17 | C6G G51C | 0.458
18 | C6G G51A | 0.682
19 | C6U A41C | 1.16
20 | C6U G51A | 0.816
21 | U7C U55G | 0.344
22 | U7C U55C | 0.418
23 | U7C U55A | 0.167
24 | U7A U8A | 1.14

Row | Variant | self-cleavage
25 | C6A U58A | 0.457
26 | C6A G15C | 0.586
27 | C6A G15U | 0.582
28 | U7A U70C | 1.04
29 | U7C G29C | 0.131
30 | U7A G27A | 0.27
31 | C6U C65U | 0.323
32 | U7A G69U | 0.271
33 | C6A G68U | 0.181
34 | C6A G68C | 0.13
35 | U7C G57C | 0.107
36 | U7C G57A | 0.153
37 | U7A A49C | 0.18
38 | U7G A43G | 0.023
39 | C6U U7C | 0.555
40 | C6U C66A | 0.11
41 | C6U C66G | 0.194
42 | U7G A11U | 0.58
43 | U7G A11G | 0.734
44 | U7G A11C | 0.481
45 | U7C C48A | 0.114
46 | U7C C48G | 0.145
47 | U7G A24C | 0.677
48 | U7G A24U | 0.685

Row | Variant | self-cleavage
49 | U7C U20C | 1.14
50 | U7C U20A | 0.82
51 | U7C C10G | 0.597
52 | U7A A35C | 1.28
53 | C6U G68U | 0.239
54 | C6U G68C | 0.154
55 | C6U G68A | 0.209
56 | C6U A39C | 0.504
57 | U7A C46A | 0.0948
58 | C6U U53C | 0.704
59 | C6U U53G | 0.801
60 | C6U A71C | 1.05
61 | C6G C10A | 0.354
62 | C6U A61C | 0.296
63 | C6G C48G | 0.115
64 | U7G A36G | 0.828
65 | U7G A36U | 0.507
66 | U7C U58A | 0.565
67 | C6A C18U | 0.708
68 | C6A C18A | 0.649
69 | C6A C18G | 0.43
70 | U7C C50U | 0.523
71 | C6G G29U | 0.0829
72 | U7C G56A | 0.184

Row | Variant | self-cleavage
73 | U7C G56C | 0.122
74 | C6U G29A | 0.158
75 | C6G A26U | 0.198
76 | C6G A26G | 0.203
77 | C6G C50U | 0.265
78 | C6U C16G | 0.65
79 | C6U C16U | 0.971
80 | U7C G54A | 0.525
81 | U7C U63C | 0.256
82 | U7C A36G | 0.925
83 | U7C A36U | 0.466
84 | C6A A45U | 0.179
85 | C6G A36C | 0.307
86 | C6A A43G | 0.223
87 | C6A A49U | 0.162
88 | C6U C12U | 0.696
89 | C6U G42A | 0.275
90 | C6G A41C | 0.552
91 | C6A G51C | 0.531
92 | U7C A45U | 0.231
93 | U7G A26G | 0.821
94 | U7C C12G | 0.758
95 | C6A U52G | 0.547
96 | U7C U33G | 0.129

Row | Variant | self-cleavage
97 | U7C U33C | 0.157
98 | U7A A39C | 0.498
99 | U7C A61G | 0.164
100 | U7C A61U | 0.175
101 | C6A U63C | 0.191
102 | C6A U63A | 0.144
103 | C6U G25C | 0.773
104 | C6A U8C | 0.344
105 | C6A G69A | 0.23
106 | C6U U67G | 0.271
107 | C6U G34U | 1.21
108 | C6A C46A | 0.119
109 | C6A C46U | 0.171
110 | U7C A30C | 0.121
111 | U7C A30U | 0.257
112 | U7C A35G | 0.931
113 | U7C A35U | 0.523
114 | U7C U62C | 0.196
115 | C6G U58C | 0.484
116 | C6G U58G | 0.498
117 | C6G U58A | 0.29
118 | U7A U33A | 0.218
119 | C6U A26U | 0.414
120 | U7A G13U | 0.774

Row | Variant | self-cleavage
121 | U7A G13C | 0.778
122 | U7C G13A | 0.615
123 | U7C G13U | 0.788
124 | C6A C38A | 0.141
125 | U7A C48G | 0.0789
126 | U7A C48A | 0.165
127 | U7A C48U | 0.0656
128 | C6A G34U | 1
129 | U7A A26U | 0.202
130 | U7A A26C | 0.174
131 | C6G A31G | 0.355
132 | U7C A23U | 0.694
133 | U7C A23G | 0.6
134 | C6U C37A | 0.286
135 | C6G U63G | 0.19
136 | C6G U63C | 0.142
137 | C6G U63A | 0.125
138 | U7C U60C | 0.905
139 | C6U U58A | 0.66
140 | U7C A49G | 0.478
141 | C6G G54A | 0.28
142 | C6G G54U | 0.267
143 | U7C U52C | 0.528
144 | U7C U52G | 0.653

Row | Variant | self-cleavage
145 | C6A C10U | 0.371
146 | U7G A30C | 0.0485
147 | U7A C65G | 0.284
148 | C6G U52G | 0.583
149 | C6A U7A | 0.648
150 | C6A U7G | 0.447
151 | U7A G25A | 0.249
152 | U7A G25U | 0.229
153 | C6U A43G | 0.151
154 | C6U A43C | 0.0901
155 | U7C U53C | 0.677
156 | U7C U70G | 0.877
157 | C6U U63G | 0.119
158 | C6U U63C | 0.167
159 | U7A U67C | 0.25
160 | U7A A24U | 1.15
161 | C6U A23C | 0.608
162 | C6U A23U | 0.615
163 | U7A C38G | 0.2
164 | C6A U67A | 0.144
165 | C6G G13C | 0.381
166 | C6G G13A | 0.45
167 | C6G G25C | 0.744
